This is an account of results in the supplement of paper PMC6379048.

What all share (test): Kd (EC50 corrected by depletion factor)
The target in one data set is T1, HMGB2 (UniProt P26583).
T1 sequence: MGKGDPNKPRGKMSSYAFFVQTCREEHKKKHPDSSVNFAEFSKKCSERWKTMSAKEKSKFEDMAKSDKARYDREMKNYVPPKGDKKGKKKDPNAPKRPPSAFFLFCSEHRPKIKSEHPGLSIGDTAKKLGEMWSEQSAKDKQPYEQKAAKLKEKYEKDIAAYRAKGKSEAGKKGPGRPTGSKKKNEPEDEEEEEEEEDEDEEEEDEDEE
An outline of the steps: (§1)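 Free RNA oligos (0 nM to 30 μM) competed for 1 h at 4°C in HEK293-FT lysate (2.5 mg protein/well) before a 30 min, 4°C pulldown with the same oligos on NHS-Sepharose beads. Bound proteins were quantified by label-free LC-MS/MS and normalised to the control. Kd was found by multiplying EC50, from a four-parameter log-logistic fit, by a protein-dependent depletion factor.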

Another data set concerns the target T2, SYNCRIP (UniProt O60506).
T2 sequence: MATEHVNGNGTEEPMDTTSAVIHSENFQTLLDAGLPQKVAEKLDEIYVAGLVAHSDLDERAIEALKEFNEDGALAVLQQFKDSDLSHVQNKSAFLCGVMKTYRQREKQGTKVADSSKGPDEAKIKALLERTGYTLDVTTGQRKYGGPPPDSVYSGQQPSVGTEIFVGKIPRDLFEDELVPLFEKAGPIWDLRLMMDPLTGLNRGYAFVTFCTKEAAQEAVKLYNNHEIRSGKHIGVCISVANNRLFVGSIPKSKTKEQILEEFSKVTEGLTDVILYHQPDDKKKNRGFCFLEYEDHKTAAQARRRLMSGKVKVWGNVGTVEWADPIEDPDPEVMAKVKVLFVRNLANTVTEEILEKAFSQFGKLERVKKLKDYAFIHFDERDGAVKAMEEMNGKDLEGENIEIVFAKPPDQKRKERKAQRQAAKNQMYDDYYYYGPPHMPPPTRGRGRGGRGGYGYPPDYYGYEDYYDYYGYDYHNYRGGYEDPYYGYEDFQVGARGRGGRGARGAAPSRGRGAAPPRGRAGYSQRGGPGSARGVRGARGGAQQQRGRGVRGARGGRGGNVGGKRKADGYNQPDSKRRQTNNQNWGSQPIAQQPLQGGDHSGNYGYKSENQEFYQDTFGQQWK
An outline of the steps: as §1

A further data set concerns the target HNRNPU (UniProt Q00839). The essentials:
as §1

A further data set addresses ICT1 (UniProt Q14197). The essentials:
as §1

A further data set deals with MRPL12 (UniProt P52815). An outline of the steps:
as §1

In a further data set the target is MRPL48 (UniProt Q96GC5). The essentials: as §1
Another data set concerns the target T3, PATL1 (UniProt Q86TB9).
T3 sequence: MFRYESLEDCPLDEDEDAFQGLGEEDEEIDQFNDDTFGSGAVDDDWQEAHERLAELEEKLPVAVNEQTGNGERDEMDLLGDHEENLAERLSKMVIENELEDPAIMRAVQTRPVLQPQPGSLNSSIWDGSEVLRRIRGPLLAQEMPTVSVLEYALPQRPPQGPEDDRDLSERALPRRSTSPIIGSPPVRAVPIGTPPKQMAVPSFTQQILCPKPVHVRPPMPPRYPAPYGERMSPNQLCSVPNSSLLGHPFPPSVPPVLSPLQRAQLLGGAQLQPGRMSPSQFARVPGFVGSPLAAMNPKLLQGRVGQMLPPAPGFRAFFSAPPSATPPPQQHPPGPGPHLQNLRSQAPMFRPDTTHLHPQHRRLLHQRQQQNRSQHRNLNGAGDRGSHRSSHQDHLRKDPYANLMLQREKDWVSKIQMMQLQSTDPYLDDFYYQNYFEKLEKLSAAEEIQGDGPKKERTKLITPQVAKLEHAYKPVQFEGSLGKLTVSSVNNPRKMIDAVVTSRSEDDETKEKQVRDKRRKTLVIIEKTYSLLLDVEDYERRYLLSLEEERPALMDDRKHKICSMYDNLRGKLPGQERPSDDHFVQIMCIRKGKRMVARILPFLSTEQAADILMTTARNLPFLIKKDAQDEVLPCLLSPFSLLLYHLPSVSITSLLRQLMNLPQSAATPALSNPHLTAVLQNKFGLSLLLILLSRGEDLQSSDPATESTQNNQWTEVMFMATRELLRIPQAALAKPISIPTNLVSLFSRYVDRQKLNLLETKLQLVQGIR
The essentials:
as §1

A further data set has as its target PTCD3 (UniProt Q96EY7). The essentials:
as §1

The target in the next data set is ZCCHC11 (UniProt Q5TAX3). An outline of the steps: as §1
Sequence of ZCCHC11 (Q5TAX3 whole entry): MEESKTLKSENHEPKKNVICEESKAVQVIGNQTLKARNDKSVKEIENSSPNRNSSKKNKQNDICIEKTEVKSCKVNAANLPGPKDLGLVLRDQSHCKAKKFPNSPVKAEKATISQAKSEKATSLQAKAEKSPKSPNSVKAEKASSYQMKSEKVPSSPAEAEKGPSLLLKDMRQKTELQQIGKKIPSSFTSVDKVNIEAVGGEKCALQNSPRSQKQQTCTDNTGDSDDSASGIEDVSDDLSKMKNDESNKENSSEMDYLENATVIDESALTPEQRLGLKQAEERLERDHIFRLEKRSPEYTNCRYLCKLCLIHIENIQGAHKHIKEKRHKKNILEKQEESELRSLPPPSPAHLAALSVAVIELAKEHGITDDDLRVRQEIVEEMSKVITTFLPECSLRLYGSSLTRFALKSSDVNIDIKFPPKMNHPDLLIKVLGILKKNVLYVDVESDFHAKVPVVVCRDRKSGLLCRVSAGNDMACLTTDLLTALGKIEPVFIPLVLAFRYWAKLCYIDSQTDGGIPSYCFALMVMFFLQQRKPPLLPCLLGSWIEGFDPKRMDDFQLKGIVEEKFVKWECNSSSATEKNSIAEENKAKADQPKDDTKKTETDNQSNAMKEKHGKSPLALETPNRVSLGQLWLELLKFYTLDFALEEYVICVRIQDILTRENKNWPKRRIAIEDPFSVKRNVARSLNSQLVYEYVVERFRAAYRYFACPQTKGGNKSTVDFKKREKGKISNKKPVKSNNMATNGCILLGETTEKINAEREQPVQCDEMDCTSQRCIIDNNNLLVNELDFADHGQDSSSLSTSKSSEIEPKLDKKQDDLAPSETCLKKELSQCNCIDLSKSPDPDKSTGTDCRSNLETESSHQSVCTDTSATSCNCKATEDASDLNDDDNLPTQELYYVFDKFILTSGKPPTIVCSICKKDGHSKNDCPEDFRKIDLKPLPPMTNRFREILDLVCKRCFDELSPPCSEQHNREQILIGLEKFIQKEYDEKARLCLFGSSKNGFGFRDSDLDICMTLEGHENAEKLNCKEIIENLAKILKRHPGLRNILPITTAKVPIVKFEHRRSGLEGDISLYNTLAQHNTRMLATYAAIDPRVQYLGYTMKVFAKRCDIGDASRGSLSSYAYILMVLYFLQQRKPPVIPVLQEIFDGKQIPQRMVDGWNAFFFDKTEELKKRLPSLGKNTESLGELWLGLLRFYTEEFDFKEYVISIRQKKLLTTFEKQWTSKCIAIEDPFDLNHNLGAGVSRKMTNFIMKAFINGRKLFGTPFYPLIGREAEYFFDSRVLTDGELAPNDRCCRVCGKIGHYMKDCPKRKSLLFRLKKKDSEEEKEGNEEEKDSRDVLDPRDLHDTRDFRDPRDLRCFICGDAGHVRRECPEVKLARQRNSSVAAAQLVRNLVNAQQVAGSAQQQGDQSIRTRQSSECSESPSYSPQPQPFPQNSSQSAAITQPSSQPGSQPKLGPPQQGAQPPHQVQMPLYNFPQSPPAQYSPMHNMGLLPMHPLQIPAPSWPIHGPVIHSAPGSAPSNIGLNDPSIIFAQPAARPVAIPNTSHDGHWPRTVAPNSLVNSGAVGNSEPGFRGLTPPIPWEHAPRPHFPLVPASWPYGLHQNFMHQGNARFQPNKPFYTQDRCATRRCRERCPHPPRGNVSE
A further data set addresses T4, ZFP36L1 (UniProt Q07352).
T4 sequence: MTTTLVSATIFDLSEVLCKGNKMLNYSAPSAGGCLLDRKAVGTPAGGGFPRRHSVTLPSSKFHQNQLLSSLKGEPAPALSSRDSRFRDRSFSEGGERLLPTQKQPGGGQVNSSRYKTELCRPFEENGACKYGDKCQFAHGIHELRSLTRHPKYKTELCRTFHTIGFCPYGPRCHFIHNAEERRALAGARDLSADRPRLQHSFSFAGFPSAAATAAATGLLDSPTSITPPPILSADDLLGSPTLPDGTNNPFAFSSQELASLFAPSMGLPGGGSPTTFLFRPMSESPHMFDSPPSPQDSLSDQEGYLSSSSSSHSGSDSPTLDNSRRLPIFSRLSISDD
An outline of the steps: as §1

Sequence of HNRNPU (Q00839 whole entry): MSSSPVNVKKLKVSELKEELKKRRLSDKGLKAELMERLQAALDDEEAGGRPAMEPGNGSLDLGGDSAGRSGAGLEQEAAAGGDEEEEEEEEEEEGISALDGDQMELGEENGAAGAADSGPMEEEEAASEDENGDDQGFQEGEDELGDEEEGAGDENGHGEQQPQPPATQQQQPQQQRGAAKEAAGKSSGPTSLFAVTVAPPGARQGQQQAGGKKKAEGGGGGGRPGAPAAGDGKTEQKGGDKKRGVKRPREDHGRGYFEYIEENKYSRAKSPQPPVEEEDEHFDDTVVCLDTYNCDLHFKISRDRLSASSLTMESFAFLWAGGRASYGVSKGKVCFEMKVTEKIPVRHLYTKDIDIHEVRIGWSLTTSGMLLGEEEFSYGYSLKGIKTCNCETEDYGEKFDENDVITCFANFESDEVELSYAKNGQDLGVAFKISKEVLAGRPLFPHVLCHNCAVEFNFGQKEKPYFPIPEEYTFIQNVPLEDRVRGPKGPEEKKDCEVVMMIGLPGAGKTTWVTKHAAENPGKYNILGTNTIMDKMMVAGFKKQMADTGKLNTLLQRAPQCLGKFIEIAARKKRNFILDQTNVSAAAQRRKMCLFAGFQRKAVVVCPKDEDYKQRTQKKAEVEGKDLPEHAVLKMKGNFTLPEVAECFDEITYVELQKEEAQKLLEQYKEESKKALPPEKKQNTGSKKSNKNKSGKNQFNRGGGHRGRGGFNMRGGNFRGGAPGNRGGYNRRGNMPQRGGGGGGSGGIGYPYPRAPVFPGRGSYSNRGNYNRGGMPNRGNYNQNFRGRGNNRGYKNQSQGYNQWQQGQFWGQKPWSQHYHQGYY

By Kd is commonly meant the constant that tells how readily two partners part at equilibrium. A lower Kd goes with tighter binding. With AAUAAA, the Kd stood at 2.05 nM with HMGB2 and 252 nM with SYNCRIP.

For the sequence CUGUCCU, the Kd came out at 90.1 nM in the data set with HNRNPU, 48.1 nM with ICT1, 43.7 nM in the data set with MRPL12 and 96.1 nM in the data set with MRPL48.

Turning to UAUUUAU, the Kd with PATL1 was found to be 258 nM; with PTCD3 it was 27.4 nM; with ZCCHC11, 91.8 nM; with ZFP36L1 it was 24.4 nM.
